Data on 20 molecules can be found in patent publication US20220112288A1 (published 2022).

B1: 75110_02E22A (antibody, V domains shown)
VH: QVQLQESGPGLVKPSETLSLTCTVSGGSISSFYWSWIRQPAGKGLEWIGRIYTSGSTNYNPSLKSRVTMSVDTSKNQFSLKLSSVTAADTAVYYCARELEKRNYYGMDVWGQGTTVTVSS
VL: DIQMTQSPSSLSASVGDRVTITCQASHDISNYLNWYQQKPGKAPKLLIFDASTLETGVPSRFSGSGSGTYFTFTIRSLQPEDIATYYCQQYDSLPLTFGGGTKVEIK
notes: Tested as antibody purified from AlivaMab Mouse hybridoma supernatant (captured by anti-mouse IgG Fc)
B2: 75110_04H17A (antibody, V domains shown)
VH: QVQLQESGPGLVKPSETLSLTCTVSGGSISTYYWSWIRQSAGKGLEWIGRIYTSERPNYNPSLKSRVTMSVDTSKNQFSLKLNSVSAADTAVYYCARELERPYYYGMDVWGQGTTVTVSS
VL: B1 VL with I2V, D17G, H27Q, F49Y, D50Y, T53N, Y70D, R76S, I83F, S93N
notes: as for B1
B3: 75110_04D20A (antibody, V domains shown)
VH: B1 VH with G26N, S31D, F32Y, V67I, K81E, K101R, R102Y, N103Y, Y104F, M107V
VL: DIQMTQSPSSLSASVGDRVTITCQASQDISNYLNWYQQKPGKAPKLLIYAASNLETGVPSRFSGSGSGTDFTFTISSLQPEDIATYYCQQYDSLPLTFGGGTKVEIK
notes: as for B1
B4: 75110_01L08A (antibody, V domains shown)
VH: QVQLQESGPGLVKPSETLSLTCTVSGGSISHYYWSWIRQPPGKGLEWIGYIHYSGTTNYNPSLKSRVTISVDTSKNQLSLKLRSVTAADTAVYYCARDQGFSSGGMDVWGQGTTVTVSS
VL: not shown
notes: as for B1
B5: 75110_03L12A (antibody, V domains shown)
VH: QVQLQQWGAGLLKPSETLSLTCAVYGGSFSGYYWSWIRQPPGKGLEWIGEINHSGSTNYNPSLKSRVTISVDTSENQFSLTLISVTAADTAVYYCVRLINWFDPWGQGTLVTVSS
VL: DIQMTQSPSSVSASVGDRVTITCRASQDISNWLAWYQQKPGKAPKLLIFAASSLQSGVPSRFSGSGSGTDFTLTISSLQPDDFATYYCQQANSFPYTFGQGTNLGIK
notes: as for B1
B6: 75110_02I16A (antibody, V domains shown)
VH: QVQLQQWGAGLLKPSETLSLTCDVYGGSFSGYYWTWIRQPPGKGLEWIGEINHSGTTNSNPSLKSRVTISVDTSKSQFSLRLSSVTAADTAVYFCTRELNWFDPWGQGTLVTVSS
VL: B5 VL with S30A, K45Q, F49Y, Q55L, S56G, T69A, Q79H, D81E, N103K, G105E
notes: as for B1
B7: 75110_01H18A (antibody, V domains shown)
VH: B5 VH with P40S, H53Q, E75K, T81K, I83S, V96A, L98V, P104S
VL: B5 VL with D28G, N31S, F49Y, L54F, P80T, D81E, N103R, G105E
notes: as for B1
B8: 75110_03C01A (antibody, V domains shown)
VH: B5 VH with P40S, H53Q, E75K, N76D, T81K, I83S, V96A, L98V, P104S, T109S
VL: B5 VL with D28G, N31S, K42N, F49Y, A50D, L54F, P80T, D81E, N103K, G105E
notes: as for B1
B9: 75110_03I08A (antibody, V domains shown)
VH: QVQLQESGPGLVKPSETLSLTCTVSGGSISSYYWSWIRQPPGKGLEWIGYIYYSGSTNYNPSLKSRVTISVDTSKNQFSLKLSSVTAADTAVYYCAREGEQWFYGLDVWGQGTTVTVSS
VL: EIVLTQSPGTLSLSPGERATLSCRASQSVSSTYLAWYQQKPGQAPRLLIYGSSSRATGIPDRFSGSGSGTDFTLTISRLEPEDFAVYYCQQYGNSFPITFGQGTRLEIK
notes: as for B1
B10: 75110_04B08A (antibody, V domains shown)
VH: QVQLVESGGGVVQPGRSLRLSCTASGFNFINYGIHWVRQAPGKGLEWVTIIWYDGSKKYYADSVKGRFAISRDNSKNTLYLQMNSLRAEDTAVYYCAREDDWNDGLAYWGQGTLVTVSS
VL: AIQMTQSPSSLSASVGDRVTITCRASQDIRNDLGWYQQKPGKAPNLLIYAASNLQSGVPSRFSGSGSGTDFTLTISSLQPEDFATYYCLQDSNYPRTFGQGTKVEIK
notes: as for B1
B11: 75110_01J09A (antibody, V domains shown)
VH: EVQLVESGGGLVQPGGSLRLSCVASGFTFSSYWMSWVRQAPGKGLEWVANTKEDGSDKYYVDSVKGRFTICRDNAKNSLYLQMNSLRAEDTAVYYCAREGGQWLALDYWGQGTLVTVSS
VL: DIQMTQSPSSVSASVGDRVTINCRASQGISSWLAWYQQKPGKAPNLLIFGASSLQSGVPSRFSGSGFGTDFSLTITTLQPEDFATYHCQQANSFPWTFGQGTKVEIK
notes: as for B1
B12: 75110_03B16A (antibody, V domains shown)
VH: B11 VH with V23A, T51I, K52N, D57E, Y59N, C71S, Y80C, M83L, Y95H
VL: DIQMTQSPSSVSASVGDRVNITCRASQGIRSWLAWYQQKPGKTPKLLICGASSLQSGVPSRFSGSGSGTDFTLTISSLQPEDFATYYCQQANSFPWTFGQGTTVEIK
notes: as for B1
B13: 75110_04F22A (antibody, V domains shown)
VH: EVQLVESGGGLVQPGGSLRLSCAASGFTFSSYDIHWVRQATGKGLEWVSTIGTAGDTYYPGSVKGRFTISRENAKNSLYLQMNSLRAGDTAVYYCARGGYYYYGMDVWGQGTTVTVSS
VL: EIVLTQSPGTLSLSPGERATLSCRASQSVYSSYLAWYQQKPGQAPRLLIYGASSRATGIPDRFSGSGSGTDFTLTISRLEPEDFAVYYCQQFGTSPFTFGPGTKVDIK
notes: as for B1
B14: 75110_04G16A (antibody, V domains shown)
VH: QVQLQESGPGLVKPSQTLSLTCTVSGDSISSGYYYWSWIRQHPGKGLEWIGYISYSGSTYYNPSLKSRLTISVNTSKNQFSLKLSSLTAADTAVYYCARDRPSNFDAFDIWGQGTMVTVSS
VL: B13 VL with Y30G, S32T, S53F, F92Y, T94S, F97L
notes: as for B1
B15: 75110_01J17A (antibody, V domains shown)
VH: B13 VH with I34M, A40G, G55D, K75E, Y100D
VL: B13 VL with T5A, S31I, S77T, T94S, I107F
notes: as for B1
B16: 75110_01N04A (antibody, V domains shown)
VH: B13 VH with S31N, I34M, Y100D, Y101F, M105L
VL: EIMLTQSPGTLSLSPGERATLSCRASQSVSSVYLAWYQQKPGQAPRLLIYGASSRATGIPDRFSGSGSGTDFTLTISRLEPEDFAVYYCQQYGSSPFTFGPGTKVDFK
notes: as for B1
B17: 75110_01E08A (antibody, V domains shown)
VH: B13 VH with S30N, S31N, I34M, G61A, S70Y, Y100D
VL: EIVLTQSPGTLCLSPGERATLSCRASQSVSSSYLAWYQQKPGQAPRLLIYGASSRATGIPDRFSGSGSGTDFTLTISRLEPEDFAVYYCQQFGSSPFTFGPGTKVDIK
notes: as for B1
B18: 75110_01G11A (antibody, V domains shown)
VH: B13 VH with I34M, K75R, Y79F, Y100D
VL: B13 VL with S14F, S28N, V29T, S54N, F92H
notes: as for B1
B19: 75110_02E08A (antibody, V domains shown)
VH: QVQLQESGPGLVKPSETLSLTCTVSGGSISTYYWTWIRQPAGKGLEWIGRVYTSGDTNYNPSLKSRVAMSLDTSKNQFSLKLSSVTAADTAVYYCARDSGALYSWNYGDAFDIWGQGTMVTVSS
VL: DIQMTQSPSAMSASVGDRVTITCRASQDISNYLAWFQQKPGKVPKRLIYAASSLQSGVPSRFSGSGSGTEFTLTISSLQPEDFATYYCLQHNSYPRTFGQGTKVEIK
notes: as for B1
B20: 75110_02K11A (antibody, V domains shown)
VH: B14 VH with D27G, Y33F, S37T, S58N, L65F, N74D, N78S, L87V
VL: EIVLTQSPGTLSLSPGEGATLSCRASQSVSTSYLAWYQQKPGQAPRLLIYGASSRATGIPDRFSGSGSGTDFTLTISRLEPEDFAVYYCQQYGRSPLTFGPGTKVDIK
notes: as for B1

Positions count from the first letter of the chain named.

The Kd is a measure of binding affinity in units of concentration. Usually koff stands for the rate constant with which the complex falls apart. In general, kon refers to the rate constant with which the complex forms.

The target in this test is T1, Rhesus macaque CD4-HIS (Acro Biosystems, Cat. CD4-C52H7) (rhesus macaque, UniProt P16003 26-390).
T1 construct: Bought reagent; also called Rhesus CD4; rhesus CD4-HIS; not shown: His tag
T1 sequence (P16003 26-390 limits assumed): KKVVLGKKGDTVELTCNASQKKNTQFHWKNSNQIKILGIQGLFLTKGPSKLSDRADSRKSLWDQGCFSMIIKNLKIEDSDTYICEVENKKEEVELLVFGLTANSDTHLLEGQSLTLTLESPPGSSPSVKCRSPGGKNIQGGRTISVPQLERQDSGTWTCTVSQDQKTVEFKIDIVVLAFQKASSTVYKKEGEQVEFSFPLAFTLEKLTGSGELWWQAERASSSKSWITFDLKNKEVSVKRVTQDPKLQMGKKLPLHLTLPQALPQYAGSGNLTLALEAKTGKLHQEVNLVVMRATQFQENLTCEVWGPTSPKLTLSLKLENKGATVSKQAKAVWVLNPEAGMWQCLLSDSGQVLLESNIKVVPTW
In words: BLI Octet, mAb on anti-mouse Fc sensor, rhesus CD4-HIS 25-100 nM, 1:1 global fit.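 Also: purified antibodies captured at 10 µg/mL, rhesus CD4 analyte run as a three-concentration serial dilution, irrelevant antibody as reference control, one kinetic constant set per antibody from global fitting.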
The molecule B1 had a Kd of 51 nM, a Response of 0.15, a koff of 0.0044 s⁻¹ and a kon of 87000 M⁻¹ s⁻¹.
Taken in the same sequence, the figures for B2 were 1.7 nM, 0.18, 0.0002 s⁻¹ and 120000 M⁻¹ s⁻¹.
For B3 the same measures were 12 nM, 0.13, 0.0017 s⁻¹ and 140000 M⁻¹ s⁻¹.
For B4 the same measures were 8.1 nM, 0.06, 0.0011 s⁻¹ and 140000 M⁻¹ s⁻¹.
B5: the Kd came to 72 nM, the Response came out at 0.08, the dissociation rate constant (koff) was found to be 0.016 s⁻¹ and the kon was found to be 220000 M⁻¹ s⁻¹.
For the molecule B6, the Kd stood at 37 nM, the Response was determined as 0.14, the koff was 0.0092 s⁻¹ and the kon was 250000 M⁻¹ s⁻¹.
The molecule B7 showed a Kd of 130 nM, a Response of 0.11, a koff of 0.017 s⁻¹ and a kon of 130000 M⁻¹ s⁻¹.
For B8 the same measures were 9.8 nM, 0.18, 0.0027 s⁻¹ and 280000 M⁻¹ s⁻¹.
For B9 the same measures were 6.1 nM, 0.04, 0.00061 s⁻¹ and 100000 M⁻¹ s⁻¹.
Taken in the same sequence, the figures for B10 were 18 nM, 0.26, 0.0048 s⁻¹ and 270000 M⁻¹ s⁻¹.
B11: binding was characterised by a dissociation constant (Kd) of 70 nM, the Response was determined as 0.17, the dissociation rate constant (koff) worked out at 0.0032 s⁻¹ and the kon is 46000 M⁻¹ s⁻¹.
For B12 the same measures were 23 nM, 0.19, 0.004 s⁻¹ and 170000 M⁻¹ s⁻¹.
For B13 the same measures were 7.2 nM, 0.04, 0.0011 s⁻¹ and 150000 M⁻¹ s⁻¹.
Taken in the same sequence, the figures for B14 were 2.4 nM, 0.27, 0.00022 s⁻¹ and 92000 M⁻¹ s⁻¹.
In turn, B15 came in with a Kd of 22 nM, a Response of 0.05, a koff of 0.0017 s⁻¹ and a kon of 79000 M⁻¹ s⁻¹.
Taken in the same sequence, the figures for B16 were 0.035 nM, 0.02, 0.0061 s⁻¹ and 1.7e+08 M⁻¹ s⁻¹.
Taken in the same sequence, the figures for B17 were 0.98 nM, 0.1, 0.00014 s⁻¹ and 140000 M⁻¹ s⁻¹.
Taken in the same sequence, the figures for B18 were 64 nM, 0.03, 0.0018 s⁻¹ and 28000 M⁻¹ s⁻¹.
Molecule B19 came in with a Kd of 12 nM, a Response of 0.04, a koff of 0.00091 s⁻¹ and a kon of 79000 M⁻¹ s⁻¹.
For B20 the same measures were 26 nM, 0.13, 0.0015 s⁻¹ and 59000 M⁻¹ s⁻¹.
